T1: hKLRF2 (human, UniProt D3W0D1 1-207)
T1 construct: Overexpressed on HEK293 cells
T1 sequence: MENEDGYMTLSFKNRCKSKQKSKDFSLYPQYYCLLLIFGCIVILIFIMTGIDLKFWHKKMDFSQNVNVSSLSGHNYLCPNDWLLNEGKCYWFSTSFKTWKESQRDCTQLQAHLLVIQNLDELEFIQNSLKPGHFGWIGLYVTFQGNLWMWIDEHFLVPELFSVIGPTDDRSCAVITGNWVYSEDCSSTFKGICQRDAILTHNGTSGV

T2: hKLRF1 (human, UniProt Q9NZS2 1-231)
T2 construct: Overexpressed on HEK293 cells
T2 sequence: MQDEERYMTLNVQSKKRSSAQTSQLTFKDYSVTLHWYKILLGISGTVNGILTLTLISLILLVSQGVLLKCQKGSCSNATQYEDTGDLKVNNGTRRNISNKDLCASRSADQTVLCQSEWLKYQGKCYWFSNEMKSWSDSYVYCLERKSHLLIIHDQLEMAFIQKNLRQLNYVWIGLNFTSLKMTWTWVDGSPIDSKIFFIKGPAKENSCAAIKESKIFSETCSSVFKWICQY

T3: hCLEC2D (human, UniProt Q9UHP7 1-191)
T3 construct: Overexpressed on HEK293 or K562 cells; the same id is used for endogenous CLEC2D on NALM6 and Raji cells; also called LLT1
T3 sequence: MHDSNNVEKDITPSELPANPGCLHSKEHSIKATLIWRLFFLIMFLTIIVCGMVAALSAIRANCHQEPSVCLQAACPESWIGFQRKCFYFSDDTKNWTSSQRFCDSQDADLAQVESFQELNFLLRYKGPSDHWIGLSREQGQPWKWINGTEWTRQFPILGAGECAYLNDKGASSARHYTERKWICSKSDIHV

T4: hCLEC12B (human, UniProt Q2HXU8 1-276)
T4 construct: Overexpressed on HEK293 cells
T4 sequence: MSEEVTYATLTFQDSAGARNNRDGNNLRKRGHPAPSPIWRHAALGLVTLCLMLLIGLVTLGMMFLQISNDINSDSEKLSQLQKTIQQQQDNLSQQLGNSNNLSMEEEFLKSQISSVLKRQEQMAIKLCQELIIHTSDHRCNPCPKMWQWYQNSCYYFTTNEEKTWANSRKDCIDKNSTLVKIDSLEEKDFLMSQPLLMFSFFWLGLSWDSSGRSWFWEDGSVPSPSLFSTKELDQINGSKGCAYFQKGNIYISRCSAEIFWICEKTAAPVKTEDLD


Experiments:
hKLRF2 [1] = target: T1, hKLRF2; experiment: flow cytometry, HEK293 transfectants, 100 nM antibody;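 note: antibody applied at a saturating level and incubated with cells for 30 min at room temperature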
Description: (§1) For the antibody binding assay, all cell lines were washed in phosphate-buffered saline with 0.1% bovine serum albumin (PBSA) and seeded in a 96 well plate at a density of 4×10⁴ cells per well. Washed cells were resuspended in 100 nM of antibody (a saturating concentration to measure maximum binding on cells) and incubated at room temperature for 30 minutes. […] Cells were analyzed by flow cytometry with a Thermo Fisher Attune flow cytometer.
(§2) Data were analyzed using FlowJo software. MFI for each sample was calculated and exported into Graphpad Prism.

hKLRF1 [2] = target: T2, hKLRF1; experiment: as above
Description: as §1, §2

hCLEC2D [3] = target: T3, hCLEC2D; experiment: as above
Description: as §1, §2

hCLEC12B [4] = target: T4, hCLEC12B; experiment: as above
Description: as §1, §2

hKLRF1 [5] = target: T2, hKLRF1; experiment: flow cytometry; 100 nM antibody on HEK293 cells expressing KLRF1; Alexa Fluor 647 anti-human IgG; MFI
Description: as §1, §2

hCLEC12B [6] = target: T4, hCLEC12B; experiment: flow cytometry; 100 nM antibody on HEK293 cells expressing CLEC12B; Alexa Fluor 647 anti-human IgG; MFI
Description: as §1, §2

hCLEC2D [7] = target: T3, hCLEC2D; experiment: flow cytometry; 100 nM antibody on HEK293 cells expressing CLEC2D; Alexa Fluor 647 anti-human IgG; MFI
Description: as §1, §2

hKLRF2 [8] = target: T1, hKLRF2; experiment: flow cytometry; 100 nM antibody on HEK293 cells expressing KLRF2; Alexa Fluor 647 anti-human IgG; MFI
Description: as §1, §2

| Binder | % of CD161 binding (hKLRF2 [1]) | % of CD161 binding (hKLRF1 [2]) | % of CD161 binding (hCLEC2D [3]) | % of CD161 binding (hCLEC12B [4]) | binding result (hKLRF1 [5]) | binding result (hCLEC12B [6]) | binding result (hCLEC2D [7]) | binding result (hKLRF2 [8]) |
| --- | --- | --- | --- | --- | --- | --- | --- | --- |
| Ab15 (antibody, human IgG1, V domains shown, IgG purified from yeast culture) VH: QVQLVESGGGLVKPGGSLRLSCAASGFTFPQYYMSWIRQAPGKGLEWVSYISPSGATIYYADSVKGRFTISRDNAKNSLYLQMNSLRAEDTAVYYCARSLMSTGTHLYFDLWGRGTLVTVSS VL: DIQLTQSPSSVSASVGDRVTITCRASQGISSWLAWYQQKPGKAPKLLIYAASSLQSGVPSRFSGSGSGTDFTLTISSLQPEDFATYYCQQVTSTPPYTFGGGTKVEIK | 0.067% | 0.114% | 0.935% | 0.071% | no binding (tested: 100 nM) | no binding (tested: 100 nM) | no binding (tested: 100 nM) | no binding (tested: 100 nM) |
| Ab16 (antibody, human IgG1, V domains shown, IgG purified from yeast culture) VH: QVQLVESGGGLVKPGGSLRLSCAASGFTFSDYYMSWIRQAPGKGLEWVSYISPSGATIAYADSVKGRFTISRDNSKNTLYLQMNSLRAEDTAVYYCARSLMATGTHLYFDLWGRGTLVTVSS VL: DIQLTQSPSSVSASVGDRVTITCRASQGISSWLAWYQQKPGKAPKLLIYAASGLQSGVPSRFSGSGSGTDFTLTISSLQPEDFATYYCQQSTSFPPYTFGGGTKVEIK | 0.048% | 0.061% | 0.865% | 0.088% | no binding (tested: 100 nM) | no binding (tested: 100 nM) | no binding (tested: 100 nM) | no binding (tested: 100 nM) |
| Ab17 (antibody, human IgG1, V domains shown, IgG purified from yeast culture) VH: QVQLVESGGGLVKPGGSLRLSCAASGFTFSDYYMSWIRQAPGKGLEWVSYISPSGATIYYADSVKGRFTISRDNAKNSLYLQMNSLRAEDTAVYYCARSLMSTGTHLYFDLWGRGTLVTVSS VL: DIQLTQSPSSVSASVGDRVTITCRASQGISSWLAWYQQKPGKAPKLLIYAASSLQSGVPSRFSGSGSGTDFTLTISSLQPEDFATYYCQQVTSVPPYTFGGGTKVEIK | 0.051% | 0.078% | 1.08% | 0.038% | no binding (tested: 100 nM) | no binding (tested: 100 nM) | no binding (tested: 100 nM) | no binding (tested: 100 nM) |

Second part, the binder after the results:

| % of CD161 binding (hKLRF2 [1]) | % of CD161 binding (hKLRF1 [2]) | % of CD161 binding (hCLEC2D [3]) | % of CD161 binding (hCLEC12B [4]) | binding result (hKLRF1 [5]) | binding result (hCLEC12B [6]) | binding result (hCLEC2D [7]) | binding result (hKLRF2 [8]) | Binder |
| --- | --- | --- | --- | --- | --- | --- | --- | --- |
| 0.22% | 0.305% | 0.97% | 0.26% | no binding (tested: 100 nM) | no binding (tested: 100 nM) | no binding (tested: 100 nM) | no binding (tested: 100 nM) | Ab19 (antibody, human IgG1, V domains shown, IgG purified from yeast culture) VH: QVQLVESGGGLVKPGGSLRLSCAASGFTFSQYYMSWIRQAPGKGLEWVSYISPSGATIYYADSVKGRFTISRDNAKNSLYLQMNSLRAEDTAVYYCARSLMATGTHLYFDLWGRGTLVTVSS VL: DIQLTQSPSSVSASVGDRVTITCRASQGISSWLAWYQQKPGKAPKLLIYAASALQSGVPSRFSGSGSGTDFTLTISSLQPEDFATYYCQQVTSAPPYTFGGGTKVEIK |
| 0.054% | 0.132% | 0.968% | 0.061% | no binding (tested: 100 nM) | no binding (tested: 100 nM) | no binding (tested: 100 nM) | no binding (tested: 100 nM) | Ab20 (antibody, human IgG1, V domains shown, IgG purified from yeast culture) VH: QVQLVESGGGLVQPGGSLRLSCAASGFTFSQYYMSWIRQAPGKGLEWVSYISPSGATIAYADSVKGRFTISRDNAKNSLYLQMNSLRAEDTAVYYCARSLMSTGTHLYFDLWGRGTLVTVSS VL: DIQLTQSPSSVSASVGDRVTITCRASQGISSWLAWYQQKPGKAPKLLIYAASVLQSGVPSRFSGSGSGTDFTLTISSLQPEDFATYYCQQVTSFLPYTFGGGTKVEIK |
